According to patent publication US20170044259A1 (CYTOMX THERAPEUTICS, published 2017):

Each binder was assayed against T1, nivolumab (assay: bacterial display clone with labeled NV1).
T1 construct: also called NV1; NV1 nivo
T1 sequence (VH, as listed by the source, chain 1 of 2): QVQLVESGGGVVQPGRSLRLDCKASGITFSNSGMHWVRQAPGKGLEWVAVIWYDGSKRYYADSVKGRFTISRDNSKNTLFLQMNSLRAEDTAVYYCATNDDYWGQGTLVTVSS
T1 sequence (VL, as listed by the source, chain 2 of 2): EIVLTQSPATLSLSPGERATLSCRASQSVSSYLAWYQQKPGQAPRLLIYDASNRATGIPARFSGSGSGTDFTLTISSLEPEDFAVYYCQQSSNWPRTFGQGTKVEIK

binding result	Binder
binds	RYCHAANPDRFCGIY (bacterial display clone; also called NV001) [masking moiety NV01]
binds	YTFGCPDRYCDRAAT (bacterial display clone) [masking moiety NV07]
binds	PNKPCPDLQCYVTNY (bacterial display clone) [masking moiety NV10]
binds	RGCPDFNPPSHCYTA (bacterial display clone) [masking moiety NV08]
binds	PRPQCHHRHNCPDHP (bacterial display clone) [masking moiety NV03]
binds	ASYRCPDYKCSHTKH (bacterial display clone) [masking moiety NV05]
binds	RGCKKHTISTLTCPD (bacterial display clone) [masking moiety NV12]
binds	RDYCGPQSPDYCHEI (bacterial display clone) [masking moiety NV09]
binds	PRVCSTDGGDYCLLP (bacterial display clone; also called NV002) [masking moiety NV02]
binds	KCSRPAHQNPDRCSR (bacterial display clone) [masking moiety NV04]
binds	LPRCPDHPIKCIETK (bacterial display clone) [masking moiety NV06]
binds	PRVACGEPDLCYSNT (bacterial display clone) [masking moiety NV11]

What follows are binders tested against T2, pembrolizumab (assay: bacterial display clone with labeled PM1).
T2 construct: also called PM1; PM1 AB
T2 sequence (VH, as listed by the source, chain 1 of 2): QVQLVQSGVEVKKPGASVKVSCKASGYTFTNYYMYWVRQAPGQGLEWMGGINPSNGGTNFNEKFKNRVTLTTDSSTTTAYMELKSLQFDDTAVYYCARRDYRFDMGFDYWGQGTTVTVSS
T2 sequence (VL, as listed by the source, chain 2 of 2): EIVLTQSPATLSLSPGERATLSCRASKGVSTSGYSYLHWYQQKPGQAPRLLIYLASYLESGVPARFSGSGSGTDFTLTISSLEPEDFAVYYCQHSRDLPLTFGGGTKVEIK

binding result	Binder
binds	VGSNCWTGPACALTS (bacterial display clone; also called PM002) [masking moiety PM02]
binds	WTYENCWASCQPHLE (bacterial display clone) [masking moiety PM08]
binds	GCDFTSAKHNCGSGW (bacterial display clone; also called PM001) [masking moiety PM01]
binds	ELCGWQSFSGVCTSE (bacterial display clone) [masking moiety PM07]
binds	FCAVMFDFLSDRCLH (bacterial display clone) [masking moiety PM03]
binds	FCPPWLDYLGNKCMT (bacterial display clone) [masking moiety PM04]
binds	VGQSCFSGLVCDRQL (bacterial display clone) [masking moiety PM10]
binds	LMCADLHYNHYNCKY (bacterial display clone) [masking moiety PM06]
binds	HCIPDFTSAAGDCMR (bacterial display clone) [masking moiety PM12]
binds	ISHYCFSGKSCRD (bacterial display clone) [masking moiety PM11]
binds	MSCWDFSSAQGCGQH (bacterial display clone) [masking moiety PM05]
binds	KLTEDFSSAA (bacterial display clone) [masking moiety PM09]

Each binder was assayed against T3, human PD-1-Fc (R and D systems, Minneapolis, Minn.) (human, UniProt Q15116 25-167) (assay: plate ELISA on human PD-1-Fc; apparent KD).
T3 construct: bought; also called hPD-1-Fc; hPD-1; not shown: Fc part of the bought fusion
T3 sequence (Q15116 25-167 limits assumed): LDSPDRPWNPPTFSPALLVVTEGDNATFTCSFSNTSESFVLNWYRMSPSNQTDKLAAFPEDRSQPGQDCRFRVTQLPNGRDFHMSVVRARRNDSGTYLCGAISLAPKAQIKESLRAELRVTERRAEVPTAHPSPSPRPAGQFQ

Kd	Binder
22 nM	PD-1 1.5 PD017 2001 (antibody, human IgG4 S228P, kappa, also called PD-17) heavy: not shown light: QGQSGQGTTCNLYQQSSMFCNAGGGSSGGSISSGLLSGRSDNHGGGSDIQLTQSPSSLSASVGDRVTITCRASESVDAYGISFMNWFQQKPGKAPKLLIYAASNQGSGVPSRFSGSGSGTDFTLTISSMQPEDFATYYCQQSKDVPWTFGQGTKLEIKRTVAAPSVFIFPPSDEQLKSGTASVVCLLNNFYPREAKVQWKVDNALQSGNSQESVTEQDSKDSTYSLSSTLTLSKADYEKHKVYACEVTHQGLSSPVTKSFNRGEC
71 nM	PD-1 1.5 PD006 2001 (antibody, human IgG4 S228P, kappa) heavy: not shown light: QGQSGQGAPRCYMFASYCKSQYGGGSSGGSISSGLLSGRSDNHGGGSDIQLTQSPSSLSASVGDRVTITCRASESVDAYGISFMNWFQQKPGKAPKLLIYAASNQGSGVPSRFSGSGSGTDFTLTISSMQPEDFATYYCQQSKDVPWTFGQGTKLEIKRTVAAPSVFIFPPSDEQLKSGTASVVCLLNNFYPREAKVQWKVDNALQSGNSQESVTEQDSKDSTYSLSSTLTLSKADYEKHKVYACEVTHQGLSSPVTKSFNRGEC

These binders were tested against T3, human PD-1-Fc (R and D systems, …) (assay: plate ELISA on human PD-1-Fc; reference A1.5).

ME (masking efficiency, Kd of the activatable antibody divided by Kd of the parental antibody)	Binder
20	PD-1 1.5 PD017 2001 (antibody, human IgG4 S228P, kappa, also called PD-17) heavy: not shown light: QGQSGQGTTCNLYQQSSMFCNAGGGSSGGSISSGLLSGRSDNHGGGSDIQLTQSPSSLSASVGDRVTITCRASESVDAYGISFMNWFQQKPGKAPKLLIYAASNQGSGVPSRFSGSGSGTDFTLTISSMQPEDFATYYCQQSKDVPWTFGQGTKLEIKRTVAAPSVFIFPPSDEQLKSGTASVVCLLNNFYPREAKVQWKVDNALQSGNSQESVTEQDSKDSTYSLSSTLTLSKADYEKHKVYACEVTHQGLSSPVTKSFNRGEC
20	PD-1 1.5 PD026 2001 (antibody, human IgG4 S228P, kappa) heavy: not shown light: QGQSGQGGMCSAYAYSSKLCTIGGGSSGGSISSGLLSGRSDNHGGGSDIQLTQSPSSLSASVGDRVTITCRASESVDAYGISFMNWFQQKPGKAPKLLIYAASNQGSGVPSRFSGSGSGTDFTLTISSMQPEDFATYYCQQSKDVPWTFGQGTKLEIKRTVAAPSVFIFPPSDEQLKSGTASVVCLLNNFYPREAKVQWKVDNALQSGNSQESVTEQDSKDSTYSLSSTLTLSKADYEKHKVYACEVTHQGLSSPVTKSFNRGEC
30	PD-1 1.5 PD025 2001 (antibody, human IgG4 S228P, kappa) heavy: not shown light: QGQSGQGSRCSVYEVSSGLCDWGGGSSGGSISSGLLSGRSDNHGGGSDIQLTQSPSSLSASVGDRVTITCRASESVDAYGISFMNWFQQKPGKAPKLLIYAASNQGSGVPSRFSGSGSGTDFTLTISSMQPEDFATYYCQQSKDVPWTFGQGTKLEIKRTVAAPSVFIFPPSDEQLKSGTASVVCLLNNFYPREAKVQWKVDNALQSGNSQESVTEQDSKDSTYSLSSTLTLSKADYEKHKVYACEVTHQGLSSPVTKSFNRGEC
42	A1.5 PD34 2001 (antibody, human IgG4 S228P, kappa, also called PD-1 1.5 PD034 2001; PD1 1.5 PD34 2001) heavy: not shown light: QGQSGQGTSYCSIEHYPCNTHHGGGSSGGSISSGLLSGRSDNHGGGSDIQLTQSPSSLSASVGDRVTITCRASESVDAYGISFMNWFQQKPGKAPKLLIYAASNQGSGVPSRFSGSGSGTDFTLTISSMQPEDFATYYCQQSKDVPWTFGQGTKLEIKRTVAAPSVFIFPPSDEQLKSGTASVVCLLNNFYPREAKVQWKVDNALQSGNSQESVTEQDSKDSTYSLSSTLTLSKADYEKHKVYACEVTHQGLSSPVTKSFNRGEC
30	PD-1 1.5 PD006 2001 (antibody, human IgG4 S228P, kappa) heavy: not shown light: QGQSGQGAPRCYMFASYCKSQYGGGSSGGSISSGLLSGRSDNHGGGSDIQLTQSPSSLSASVGDRVTITCRASESVDAYGISFMNWFQQKPGKAPKLLIYAASNQGSGVPSRFSGSGSGTDFTLTISSMQPEDFATYYCQQSKDVPWTFGQGTKLEIKRTVAAPSVFIFPPSDEQLKSGTASVVCLLNNFYPREAKVQWKVDNALQSGNSQESVTEQDSKDSTYSLSSTLTLSKADYEKHKVYACEVTHQGLSSPVTKSFNRGEC
25	PD-1 1.5 PD028 2001 (antibody, human IgG4 S228P, kappa) heavy: not shown light: QGQSGQGFQPCLMFASSCFTSKGGGSSGGSISSGLLSGRSDNHGGGSDIQLTQSPSSLSASVGDRVTITCRASESVDAYGISFMNWFQQKPGKAPKLLIYAASNQGSGVPSRFSGSGSGTDFTLTISSMQPEDFATYYCQQSKDVPWTFGQGTKLEIKRTVAAPSVFIFPPSDEQLKSGTASVVCLLNNFYPREAKVQWKVDNALQSGNSQESVTEQDSKDSTYSLSSTLTLSKADYEKHKVYACEVTHQGLSSPVTKSFNRGEC

Target: T3, human PD-1-Fc (R and D systems, …)
Assay: plate ELISA on human PD-1-Fc; reference A1.5
Remark: another data set of the same source

Masking Efficiency	Binder
12	PD-1 1.5 PD017 2001 (antibody, human IgG4 S228P, kappa, also called PD-17) heavy: not shown light: QGQSGQGTTCNLYQQSSMFCNAGGGSSGGSISSGLLSGRSDNHGGGSDIQLTQSPSSLSASVGDRVTITCRASESVDAYGISFMNWFQQKPGKAPKLLIYAASNQGSGVPSRFSGSGSGTDFTLTISSMQPEDFATYYCQQSKDVPWTFGQGTKLEIKRTVAAPSVFIFPPSDEQLKSGTASVVCLLNNFYPREAKVQWKVDNALQSGNSQESVTEQDSKDSTYSLSSTLTLSKADYEKHKVYACEVTHQGLSSPVTKSFNRGEC
39	PD-1 1.5 PD006 2001 (antibody, human IgG4 S228P, kappa) heavy: not shown light: QGQSGQGAPRCYMFASYCKSQYGGGSSGGSISSGLLSGRSDNHGGGSDIQLTQSPSSLSASVGDRVTITCRASESVDAYGISFMNWFQQKPGKAPKLLIYAASNQGSGVPSRFSGSGSGTDFTLTISSMQPEDFATYYCQQSKDVPWTFGQGTKLEIKRTVAAPSVFIFPPSDEQLKSGTASVVCLLNNFYPREAKVQWKVDNALQSGNSQESVTEQDSKDSTYSLSSTLTLSKADYEKHKVYACEVTHQGLSSPVTKSFNRGEC

What follows are binders tested against T4, J43v2 mIgG2a (assay: bacterial display clone with DyLight 650 labeled J43v2 m2a).
T4 construct: also called J43 m2a; J43v2 m2a
T4 sequence (VH, as listed by the source, chain 1 of 2): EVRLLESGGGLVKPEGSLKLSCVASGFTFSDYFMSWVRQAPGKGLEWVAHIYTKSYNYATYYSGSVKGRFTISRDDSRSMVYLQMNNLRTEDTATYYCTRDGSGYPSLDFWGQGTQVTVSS
T4 sequence (VL, as listed by the source, chain 2 of 2): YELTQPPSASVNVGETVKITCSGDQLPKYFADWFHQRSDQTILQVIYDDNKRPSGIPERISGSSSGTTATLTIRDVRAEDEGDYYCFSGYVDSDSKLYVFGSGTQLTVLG

binding result	Binder
binds	HYTICMTHNKCKDMA (bacterial display clone; also called MP13) [masking moiety MP013]
binds	QPCNPQIDHKIKCIY (bacterial display clone; also called MP12) [masking moiety MP012]
binds	ANSCLAVEHKCKHNY (bacterial display clone; also called MP14) [masking moiety MP014]
